Legend:
[1] = substrate: NC(=O)C1=CN([C@@H]2O[C@H](COP(=O)(O)OP(=O)(O)OC[C@H]3O[C@@H](n4cnc5c(N)ncnc54)[C@H](OP(=O)(O)O)[C@@H]3O)[C@@H](O)[C@H]2O)C=CC1; test: Kinetic parameters of purified mutant PPTGDH-G239K; assay type: biochemical, Pseudomonas moorei; details: other: PPO 2-10 mM, NADPH 1-5 mM, pH 7.4, 35° C., double-reciprocal plot
Procedure: (§1) 1. […] The mutant proteins were purified by Ni-NTA column(1.6×10 cm, Bio-Rad, the USA), and the specific operations were carried out as follows: (1)equilibrate a Ni-NTA column with 5 column volumes of a binding buffer(pH 8.0, 50 mM sodium phosphate buffer containing 0.3 M NaCl) until the baseline is steady; (2)load the sample with a flow rate of 1 mL/min with the amount of the loading sample of 25-40 mg/mL, thereby attaching the target protein to the Ni-NTA column; (3)wash the column with 6 column volumes of buffer A (pH 8.0, 50 mM sodium phosphate buffer containing 0.3 M NaCl and 30 mM imidazole) at a flow rate of 1 mL/min until the baseline is steady; (4)wash the column with buffer B (pH 8.0, 50 mM sodium phosphate buffer containing 0.3 M NaCl and 500 mM imidazole) at a flow rate of 1 mL/min, collect the target protein and dialyze overnight in a pH 7.5, 20 mM phosphate buffer, thereby obtaining the pure glufosinate-ammonium dehydrogenase; and (5)wash the Ni-NTA column with 5 column volumes of a binding buffer(pH 8.0, 50 mM sodium phosphate buffer containing 0.3 M NaCl) until the baseline is steady, and store the Ni-NTA column in 5 column volumes of ultrapure water containing 20% ethanol.
(§2) According to sequential mechanism in glufosinate-ammonium dehydrogenase's catalytic reaction, vmax, Km^A, Km^B can be calculated by a double-reciprocal plot, the results were shown in Table 4.

[2] = substrate: CP(=O)(O)CCC(=O)C(=O)O; test: Kinetic parameters of purified mutant PPTGDH-G239K; assay type: biochemical, Pseudomonas moorei; details: other: PPO 2-10 mM, NADPH 1-5 mM, pH 7.4, 35° C., double-reciprocal plot
Procedure: as §1, §2

B1: Pseudomonas moorei glufosinate-ammonium dehydrogenase E3 (SEQ ID NO: 6) variant PPTGDH-G239K (Pseudomonas moorei; G239K) (protein)
chain: MIESVESFLARLKKRDPDQPEFHQAVEEVLRSLWPFLEANPRYLTSGILERICEPERAIVFRVSWVDDQGKVQVNRGFRIQMNSAIGPYKGGLRFHPSVNLGVLKFLAFEQTFKNSLTSLPMGGGKGGSDFDPKGKSDAEVMRFCQAFMSELYRHIGADVDVPAGDIGVGAREIGFLFGQYKRLSNQFTSVLTGKGPSYGGSLIRPEATGFGCVYFAEEMLKRRGETVEGKRVAISGSKNVAQYAARKVMDLGGKVISLSDSEGTLYCESGLTEAQWQAVLELKNVQRGRISELAGRFGLEFLAGQRPWGLSCDIALPCATQNELDAEAARALLRNGCTCVAEGANMPTTLEAVDLFIEAGILFAPGKASNAGGVAVSGLEMSQNAMRLLWTGGEVDSKLHAIMQSIHHACVHYGEENGQVNYVKGANIAGFVKVADAMLAQGVV
[1]
  Km: 68 µM
  kcat/Km: 499700 M⁻¹ s⁻¹
[2]
  Km: 2530 µM
  kcat: 33.98 ± 1.55 s⁻¹
  kcat/Km: 13430 M⁻¹ s⁻¹
